Among the data in patent US20240228656A1 (HARPOON THERAPEUTICS, published 2024) are binding result and Kd values, retold here.

The target of assay [1] is T1, EpCAM H13 Mask27 L040 (EpCAM targeting ProTriTAC with H13).
T1 construct: trispecific prodrug: masked anti-albumin sdAb-cleavable linker L040-anti-CD3 scFv-anti-EpCAM sdAb H13-His6; also called H13 ProTriTAC (L040)
In words: binding assay, affinity summary.

Assay [2] has as its target T2, EpCAM H90 Mask27 L040 (EpCAM targeting ProTriTAC with H90).
T2 construct: trispecific prodrug: masked anti-albumin sdAb-L040-anti-CD3 scFv-anti-EpCAM sdAb H90-His6
In words: binding assay with kinetics, affinity summary (instrument not stated).

The target of assay [3] is T3, EpCAM H90.2 Mask27 L040 (EpCAM targeting ProTriTAC with H90.2).
T3 construct: trispecific prodrug; also called H90.2 ProTriTAC (L040)
T3 sequence (chain, as listed by the source): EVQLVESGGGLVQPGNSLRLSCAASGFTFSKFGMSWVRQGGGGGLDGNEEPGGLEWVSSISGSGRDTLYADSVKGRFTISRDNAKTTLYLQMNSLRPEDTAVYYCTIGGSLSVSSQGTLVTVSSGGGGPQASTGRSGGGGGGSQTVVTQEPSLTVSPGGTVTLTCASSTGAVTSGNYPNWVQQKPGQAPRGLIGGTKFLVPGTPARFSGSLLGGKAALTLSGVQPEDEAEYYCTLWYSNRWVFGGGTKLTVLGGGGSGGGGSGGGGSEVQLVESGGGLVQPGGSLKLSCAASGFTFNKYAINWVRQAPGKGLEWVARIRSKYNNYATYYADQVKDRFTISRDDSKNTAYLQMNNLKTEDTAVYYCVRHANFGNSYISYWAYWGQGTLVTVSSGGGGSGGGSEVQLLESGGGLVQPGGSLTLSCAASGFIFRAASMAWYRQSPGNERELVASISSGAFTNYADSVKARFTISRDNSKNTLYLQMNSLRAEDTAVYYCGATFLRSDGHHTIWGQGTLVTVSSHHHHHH
Described as above.

T2 sequence (chain, as listed by the source): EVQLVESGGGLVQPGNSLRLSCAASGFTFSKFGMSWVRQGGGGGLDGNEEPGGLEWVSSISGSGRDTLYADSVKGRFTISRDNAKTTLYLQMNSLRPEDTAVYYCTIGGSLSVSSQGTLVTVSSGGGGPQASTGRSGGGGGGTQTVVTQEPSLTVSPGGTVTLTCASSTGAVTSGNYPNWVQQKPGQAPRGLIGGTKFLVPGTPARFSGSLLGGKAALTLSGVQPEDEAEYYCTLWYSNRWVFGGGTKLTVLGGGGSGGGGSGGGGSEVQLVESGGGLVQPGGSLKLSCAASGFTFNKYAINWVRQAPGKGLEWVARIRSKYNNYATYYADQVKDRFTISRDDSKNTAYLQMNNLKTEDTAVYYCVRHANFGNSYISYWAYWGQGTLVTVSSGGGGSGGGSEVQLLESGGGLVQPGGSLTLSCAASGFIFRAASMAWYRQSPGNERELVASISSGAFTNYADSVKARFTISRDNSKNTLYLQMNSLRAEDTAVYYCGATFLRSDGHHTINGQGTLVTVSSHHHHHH
T1 sequence (chain, as listed by the source): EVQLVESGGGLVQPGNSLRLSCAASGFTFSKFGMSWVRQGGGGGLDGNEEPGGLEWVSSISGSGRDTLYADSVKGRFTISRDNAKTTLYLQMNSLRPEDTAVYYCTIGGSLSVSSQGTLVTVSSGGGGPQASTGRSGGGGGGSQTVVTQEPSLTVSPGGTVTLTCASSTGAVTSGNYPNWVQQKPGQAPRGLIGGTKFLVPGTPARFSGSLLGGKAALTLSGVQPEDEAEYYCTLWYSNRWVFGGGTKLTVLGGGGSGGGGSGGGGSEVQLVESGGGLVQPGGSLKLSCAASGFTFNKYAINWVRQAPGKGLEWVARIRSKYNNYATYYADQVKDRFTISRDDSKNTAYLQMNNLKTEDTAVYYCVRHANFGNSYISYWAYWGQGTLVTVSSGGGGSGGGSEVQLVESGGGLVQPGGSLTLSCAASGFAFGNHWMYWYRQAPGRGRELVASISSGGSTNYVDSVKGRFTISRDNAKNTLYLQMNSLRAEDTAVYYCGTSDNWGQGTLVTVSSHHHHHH

B1: mouse EpCAM (other)
chain: QRDCVCDNYKLATSCSLNEYGECQCTSYGTQNTVICSKLASKCLAMKAEMTHSKSGRRIKPEGAIQNNDGLYDPDCDEQGLFKAKQCNGTATCWCVNTAGVRRTDKDTEITCSERVRTYWIIIELKHKERESPYDHQSLQTALQEAFTSRYKLNQKFIKNIMYENNVITIDLMQNSSQKTQDDVDIADVAYYFEKDVKGESLFHSSKSMDLRVNGEPLDLDPGQTLIYYVDEKAPEFSMQGLT
modifications: biotinylated
notes: also called muEpCAM (biotinylated version of mouse EpCAM antigen)
Regarding B1, in assay [1], the binding result is listed as “no binding”. The values for the Kd in assay [2] and in assay [3] were 0.26 nM and 0.15 nM, respectively.

What is called Kd is the constant that tells how readily two partners part at equilibrium. Higher therefore signals weaker binding.
